# Measured values from patent US12618050B2, “Engineered polypeptides that exhibit increased catalytic efficiency for unnatural cofactors and uses thereof” (The Regents of the University of California, priority 2018, dated 2026).
# Key:
# [1] = XenA-GDH coupled cycling biotransformation of ketoisophorone to levodione; format: biochemical
# Description: Coupled enzymatic biotransformation. All biotransformation reactions were performed in buffer A at 30° C. for 24 hours. Reaction buffer A, modified from that disclosed in Chaparro-Riggers et al., Advanced Synthesis & Catalysis 349(8-9):1521-1531 (2007)), contained 200 mM potassium phosphate buffer (pH 7.5), 1 M NaCl, 300 mM D-glucose, 6 mM NMN^+ (or NADP^+ as the positive control), and substrates. All assays were performed in triplicate, with no proteins or no cofactors added as negative controls. The protein loading for GDH variants was kept at 0.33 mg mL^−1 or 11.7 μM. The various enzymes for biotransformation reactions were added at the concentration of 0.75 mg mL^−1.
# For XenA-GDH coupled cycling assays, the substrates ketoisophorone, citral, or trans-2-hexen-1-al were added at 33 mM, 10 mM, or 50 mM, respectively. For the OYE3-GDH coupled cycling assays, the substrate 4-phenyl-3-butyn-2-one was added at 5 mM. At various time points over 24 hours, 100 μL samples were taken and extracted with 100 μL ethyl acetate. Conversion was determined via GC-FID with octanol as an internal standard (see below). For NfsB-GDH coupled cycling assays, 2 mM nitrofurazone was used as the substrate. Nitrofurazone conversion was measured spectroscopically at 400 nm and quantification was performed using a standard curve. The initial levels of the above-mentioned substrates were mainly determined by their solubility in the assay buffer. For BM3-GDH coupled cycling assays, 50 μM cytochrome c (C2506 Sigma) was used as the substrate. The reduction of cytochrome c was measured spectroscopically at 550 nm. and the quantification was performed using extinction coefficient ε550 of 21.1 mM^−1 cm^−1.
# Coupled cycling conditions: All biotransformation reactions were performed in buffer A at 30° C. for 24 hours. Reaction buffer A contained 200 mM potassium phosphate buffer (pH 7.5), 1 M NaCl, 300 mM D-glucose, 6 mM NMN^+. Substrate ketoisophorone was added at 5 g/L. At various time points over 24 hours, 100 μL samples were taken and extracted with 100 μL ethyl acetate. Conversion was determined via GC-FID with octanol as an internal standard (see below).
# [2] = Protein expression levels of GDH variants; design: species or system Escherichia coli; conditions: expressed in E. coli
# Description: Proteins were purified as 6×His tag fusion at the N-terminus. E. coli BL21 (DE3) with plasmids were inoculated into LB medium with 200 mg L^−1 ampicillin. Cells were induced with 0.5 mM IPTG and expressed for 24 hours at 30° C. with shaking at 250 rpm. BM3 cytochrome P450 was extracted with the EMD Millipore™ BugBuste Plus Lysonase Kit and purified using the HisPur™ Ni-NTA Superflow Purification System according to the manufacturer's instructions. Other proteins were purified using His-Spin Protein Miniprep kit (Zymo Research Corporation, CA). The purified proteins were quantified by Bradford assay.
# [3] = GDH enzymatic assay with NMN^+ as cofactor; format: biochemical
# Description: (§1) GDH enzymatic assays. The GDH activity was measured as described in Hilt et al. (Biochimica et biophysica acta 1076(2):298-304 (1991)). The reactions were started by adding the purified protein to the assay mixture containing 35 mM Tris-HCl buffer (pH 8.0), 3 mM NAD^+, NADP^+ or NMN^+ and 140 mM glucose. The absorbance variation at 340 nm was detected by a spectrophotometer at 25° C.
# [4] = GDH enzymatic assay with NAD^+ as cofactor; format: biochemical; conditions: cofactor NAD^+
# Description: as §1
# [5] = GDH enzymatic assay with NADP^+ as cofactor; format: biochemical; conditions: cofactor NADP^+
# Description: as §1
# [6] = specific activity towards NMN^+
molecule,measurement,setting,value
"I195R: Bs GDH, same sequence as SEQ ID NO:1 except I195R (SEQ ID NO:2) (protein, I195R mutant GDH coding sequence) MYPDLKGKVVAITGAASGLGKAMAIRFGKEQAKVVINYYSNKQDPNEVKEEVIKAGGEAVVVQGDVTKEEDVKNIVQTAIKEFGTLDIMINNAGLENPVPSHEMPLKDWDKVIGTNLTGAFLGSREAIKYFVENDIKGNVINMSSVHEVIPWPLFVHYAASKGGIKLMTETLALEYAPKGIRVNNIGPGAINTPRNAEKFADPKQKADVESMIPMGYIGEPEEIAAVAAWLASKEASYVTGITLFADGGMTQYPSFQAGRG",initial productivity of levodione,"[1]; NMN^+ as cycling cofactor, XenA in excess, GDH 11.7 μM",~0.51 µM/s
same,improvement of NMN^+-dependent productivity,[1]; versus wild type Bs GDH,10 fold
same,Expression level,[2],108.83 μg protein/ml culture
same,Kcat,[3]; cofactor NMN^+,1.1 ± 0.27 s⁻¹
same,Km,[3]; cofactor NMN^+,8900 ± 690 µM
same,improvement of specific activity towards NMN^+,[3]; versus wild-type Bs GDH,545 fold
same,Kcat,[4],7.3 ± 1.1 s⁻¹
same,Km,[4],53 ± 9.2 µM
same,Kcat,[5],2.5 ± 0.21 s⁻¹
same,Km,[5],16 ± 0.8 µM
I195R-Y39Q: Bs GDH variant I195R Y39Q (protein) MYPDLKGKVVAITGAASGLGKAMAIRFGKEQAKVVINYQSNKQDPNEVKEEVIKAGGEAVVVQGDVTKEEDVKNIVQTAIKEFGTLDIMINNAGLENPVPSHEMPLKDWDKVIGTNLTGAFLGSREAIKYFVENDIKGNVINMSSVHEVIPWPLFVHYAASKGGIKLMTETLALEYAPKGIRVNNIGPGAINTPRNAEKFADPKQKADVESMIPMGYIGEPEEIAAVAAWLASKEASYVTGITLFADGGMTQYPSFQAGRG,Expression level,[2],57.60 μg protein/ml culture
same,lower activity than GDH Triple,[3]; [6],14 fold
same,slower than I195R,[3]; [6],2.4 fold
I195R-A93K: Bs GDH variant I195R A93K (protein) MYPDLKGKVVAITGAASGLGKAMAIRFGKEQAKVVINYYSNKQDPNEVKEEVIKAGGEAVVVQGDVTKEEDVKNIVQTAIKEFGTLDIMINNKGLENPVPSHEMPLKDWDKVIGTNLTGAFLGSREAIKYFVENDIKGNVINMSSVHEVIPWPLFVHYAASKGGIKLMTETLALEYAPKGIRVNNIGPGAINTPRNAEKFADPKQKADVESMIPMGYIGEPEEIAAVAAWLASKEASYVTGITLFADGGMTQYPSFQAGRG,Expression level,[2],11.17 μg protein/ml culture
same,lower activity than GDH Triple,[3]; [6],9 fold
M143S (protein) MYPDLKGKVVAITGAASGLGKAMAIRFGKEQAKVVINYYSNKQDPNEVKEEVIKAGGEAVVVQGDVTKEEDVKNIVQTAIKEFGTLDIMINNAGLENPVPSHEMPLKDWDKVIGTNLTGAFLGSREAIKYFVENDIKGNVINSSSVHEVIPWPLFVHYAASKGGIKLMTETLALEYAPKGIRVNNIGPGAINTPINAEKFADPKQKADVESMIPMGYIGEPEEIAAVAAWLASKEASYVTGITLFADGGMTQYPSFQAGRG,Expression level,[2],40.60 μg protein/ml culture
M143T (protein) MYPDLKGKVVAITGAASGLGKAMAIRFGKEQAKVVINYYSNKQDPNEVKEEVIKAGGEAVVVQGDVTKEEDVKNIVQTAIKEFGTLDIMINNAGLENPVPSHEMPLKDWDKVIGTNLTGAFLGSREAIKYFVENDIKGNVINTSSVHEVIPWPLFVHYAASKGGIKLMTETLALEYAPKGIRVNNIGPGAINTPINAEKFADPKQKADVESMIPMGYIGEPEEIAAVAAWLASKEASYVTGITLFADGGMTQYPSFQAGRG,Expression level,[2],94.55 μg protein/ml culture
M143G-L19G-I224R (protein) MYPDLKGKVVAITGAASGGGKAMAIRFGKEQAKVVINYYSNKQDPNEVKEEVIKAGGEAVVVQGDVTKEEDVKNIVQTAIKEFGTLDIMINNAGLENPVPSHEMPLKDWDKVIGTNLTGAFLGSREAIKYFVENDIKGNVINGSSVHEVIPWPLFVHYAASKGGIKLMTETLALEYAPKGIRVNNIGPGAINTPINAEKFADPKQKADVESMIPMGYIGEPEERAAVAAWLASKEASYVTGITLFADGGMTQYPSFQAGRG,Expression level,[2],No expression (<1) μg protein/ml culture
N92A (protein) MYPDLKGKVVAITGAASGLGKAMAIRFGKEQAKVVINYYSNKQDPNEVKEEVIKAGGEAVVVQGDVTKEEDVKNIVQTAIKEFGTLDIMINAAGLENPVPSHEMPLKDWDKVIGTNLTGAFLGSREAIKYFVENDIKGNVINMSSVHEVIPWPLFVHYAASKGGIKLMTETLALEYAPKGIRVNNIGPGAINTPINAEKFADPKQKADVESMIPMGYIGEPEEIAAVAAWLASKEASYVTGITLFADGGMTQYPSFQAGRG,Expression level,[2],81.16 μg protein/ml culture
N92V (protein) MYPDLKGKVVAITGAASGLGKAMAIRFGKEQAKVVINYYSNKQDPNEVKEEVIKAGGEAVVVQGDVTKEEDVKNIVQTAIKEFGTLDIMINVAGLENPVPSHEMPLKDWDKVIGTNLTGAFLGSREAIKYFVENDIKGNVINMSSVHEVIPWPLFVHYAASKGGIKLMTETLALEYAPKGIRVNNIGPGAINTPINAEKFADPKQKADVESMIPMGYIGEPEEIAAVAAWLASKEASYVTGITLFADGGMTQYPSFQAGRG,Expression level,[2],57.56 μg protein/ml culture
G94S (protein) MYPDLKGKVVAITGAASGLGKAMAIRFGKEQAKVVINYYSNKQDPNEVKEEVIKAGGEAVVVQGDVTKEEDVKNIVQTAIKEFGTLDIMINNASLENPVPSHEMPLKDWDKVIGTNLTGAFLGSREAIKYFVENDIKGNVINMSSVHEVIPWPLFVHYAASKGGIKLMTETLALEYAPKGIRVNNIGPGAINTPINAEKFADPKQKADVESMIPMGYIGEPEEIAAVAAWLASKEASYVTGITLFADGGMTQYPSFQAGRG,Expression level,[2],117.50 μg protein/ml culture
